# T1: ComEAGs-A108Y (Geobacillus stearothermophilus (ATCC …, UniProt A0A0K9HI54 60-207, A108Y))
# T1 sequence: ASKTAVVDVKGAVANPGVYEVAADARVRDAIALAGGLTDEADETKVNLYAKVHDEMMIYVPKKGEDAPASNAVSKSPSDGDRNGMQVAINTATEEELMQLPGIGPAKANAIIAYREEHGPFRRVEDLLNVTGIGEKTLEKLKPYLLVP
# T2: ComEAGs-K166A (Geobacillus stearothermophilus (ATCC …, UniProt A0A0K9HI54 60-207, K166A))
# T2 sequence: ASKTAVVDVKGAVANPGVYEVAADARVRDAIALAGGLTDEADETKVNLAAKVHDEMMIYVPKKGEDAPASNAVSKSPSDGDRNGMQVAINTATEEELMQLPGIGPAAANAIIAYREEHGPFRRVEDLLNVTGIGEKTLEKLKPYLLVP
# T3: ComEAGs-K201A (Geobacillus stearothermophilus (ATCC …, UniProt A0A0K9HI54 60-207, K201A))
# T3 sequence: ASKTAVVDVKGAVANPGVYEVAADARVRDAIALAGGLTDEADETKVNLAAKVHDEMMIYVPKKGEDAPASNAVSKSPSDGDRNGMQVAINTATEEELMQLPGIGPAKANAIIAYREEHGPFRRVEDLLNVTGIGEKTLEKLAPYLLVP
# Key:
# Settings in all cases: protein: recombinant; tags: as P1; blunt
# ComEAGs-A108Y [1] = biological target: T1, ComEAGs-A108Y; experiment: MW-AUC; 1.5 uM DNA, 10:1 protein:DNA; >90% DNA bound; ~4.7:1 complex, 6.3 S; MW-AUC: 10 mM Tris pH 8, 100 mM KCl, 20 C; EMSA: 10 mM Tris pH 8, 100 mM KCl, 2.5% glycerol, 0.5 mM EDTA, 1 mM MgCl2, room temperature 15 min, 8% native gel in
# ComEAGs-K166A = biological target: T2, ComEAGs-K166A; experiment: EMSA; 0.5 uM DNA, 1 mM MgCl2; MW-AUC: 10 mM Tris pH 8, 100 mM KCl, 20 C; EMSA: 10 mM Tris pH 8, 100 mM KCl, 2.5% glycerol, 0.5 mM EDTA, 1 mM MgCl2, room temperature 15 min, 8% native gel in
# ComEAGs-K201A = biological target: T3, ComEAGs-K201A; experiment: as above
# ComEAGs-A108Y [2] = biological target: T1, ComEAGs-A108Y; experiment: MW-AUC; 1.5 uM DNA, 5:1 and 10:1 protein:DNA; >90% DNA bound; ~2:1 complex, 3.3-3.5 S; MW-AUC: 10 mM Tris pH 8, 100 mM KCl, 20 C; EMSA: 10 mM Tris pH 8, 100 mM KCl, 2.5% glycerol, 0.5 mM EDTA, 1 mM MgCl2, room temperature 15 min, 8% native gel in
binder,measurement,setting,value
EAGs40bp (dsDNA) DNA 1: CGTTAGCACTGTGAATATCACTACAGCAACCTTAGAATCG DNA 2: CGATTCTAAGGTTGCTGTAGTGATATTCACAGTGCTAACG,binding result,ComEAGs-A108Y [1],binds
EAGs30bp (dsDNA) DNA 1: GCACTGTGAATATCACTACAGCAACCTTAG DNA 2: CTAAGGTTGCTGTAGTGATATTCACAGTGC,binding result,ComEAGs-K166A,no binding
same,binding signal,ComEAGs-K201A,~2 fold decrease in apparent affinity vs wild-type
EAGs14bp (dsDNA) DNA 1: GTAGGACCATCTGC DNA 2: GCAGATGGTCCTAC,binding result,ComEAGs-A108Y [2],binds
